T1: recombinant GST-Rab19 (UniProt A4D1S5 1-217)
T1 construct: small GTPase Rab19; loaded with GDP or GMP-PNP before the assay; Loaded with GDP or with GMP-PNP (non-hydrolyzable GTP analog); also called GST-Rab19 (GDP); GST-Rab19 (GMP-PNP); source: E. coli BL21 Codon Plus, purified as previously described (Jewett et al, 2021); not shown: GST, N-terminal, kept
T1 sequence (looked up): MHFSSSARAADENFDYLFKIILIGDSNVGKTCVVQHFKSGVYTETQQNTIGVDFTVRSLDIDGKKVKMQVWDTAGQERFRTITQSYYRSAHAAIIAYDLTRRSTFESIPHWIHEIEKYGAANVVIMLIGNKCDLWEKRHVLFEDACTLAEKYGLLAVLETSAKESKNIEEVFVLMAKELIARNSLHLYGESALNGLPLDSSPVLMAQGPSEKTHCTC

B1: recombinant 6His-TTLL12 (natural protein, human, UniProt Q14166 1-644, looked up)
chain: MEAERGPERRPAERSSPGQTPEEGAQALAEFAALHGPALRASGVPERYWGRLLHKLEHEVFDAGEVFGIMQVEEVEEEEDEAAREVRKQQPNPGNELCYKVIVTRESGLQAAHPNSIFLIDHAWTCRVEHARQQLQQVPGLLHRMANLMGIEFHGELPSTEAVALVLEEMWKFNQTYQLAHGTAEEKMPVWYIMDEFGSRIQHADVPSFATAPFFYMPQQVAYTLLWPLRDLDTGEEVTRDFAYGETDPLIRKCMLLPWAPTDMLDLSSCTPEPPAEHYQAILEENKEKLPLDINPVVHPHGHIFKVYTDVQQVASSLTHPRFTLTQSEADADILFNFSHFKDYRKLSQERPGVLLNQFPCENLLTVKDCLASIARRAGGPEGPPWLPRTFNLRTELPQFVSYFQQRERWGEDNHWICKPWNLARSLDTHVTKSLHSIIRHRESTPKVVSKYIESPVLFLREDVGKVKFDIRYIVLLRSVRPLRLFVYDVFWLRFSNRAFALNDLDDYEKHFTVMNYDPDVVLKQVHCEEFIPEFEKQYPEFPWTDVQAEIFRAFTELFQVACAKPPPLGLCDYPSSRAMYAVDLMLKWDNGPDGRRVMQPQILEVNFNPDCERACRYHPTFFNDVFSTLFLDQPGGCHVTCLV
notes: Tubulin Tyrosine Ligase-Like 12 (TTLL12), human cDNA (pLVX304-hTTLL12); the form rests on the printed cloning primers; also called Tubulin Tyrosine Ligase-Like 12; source: Sf9 cells (baculovirus, pFastBac HTA), purified (nickel beads, dialysed into PBS with 1 mM DTT); not shown: 6His, …

Key:
[1] = biological target: recombinant 6His-TTLL12 (human) (UniProt Q14166); test: pull-down; 10 μg (0.18 μM) untagged porcine brain tubulin alone or with 10 μg 6His-TTLL12 in 20 mM HEPES pH 7.4, 150 mM KCl, overnight at 4 °C to prevent polymerization; Ni beads; washes with 300 mM KCl, 0.1% Triton X-100; Coomassie blue staining
recombinant GST-Rab19 = biological target: T1, recombinant GST-Rab19; test: pull-down; 10 μg GST-Rab19 loaded with GDP or GMP-PNP + 10 μg 6His-TTLL12 in 20 mM HEPES pH 7.4, 150 mM NaCl, 1% BSA, 1 h room temperature; glutathione beads; washes with 300 mM NaCl, 0.1% Triton X-100; Coomassie blue staining; details: both partners purified

Row | Molecule | fold increase in tubulin co-precipitation with Ni beads over tubulin alone [1] | fold increase in TTLL12 binding over a GST-only control (recombinant GST-Rab19)
1 | untagged purified porcine brain tubulin (α/β-tubulin heterodimer) (from UniProt P02554 1-445) (complex) | 3 fold | 
2 | B1 |  | ~5 fold
